Where no end group is shown, it is not given here. [ ]: non-standard residue; d: D form.
Experiments:
[1] = target: Aβ (1-42) (UniProt P05067 672-713); assay: cell-based or functional assay
[2] = target: the molecule itself; assay: self-association: PICUP cross-linking of the peptide alone at 36 µM, gel, silver staining
Experimental: Peptides were also cross-linked by PICUP and analyzed for self-association. […] Cross-linked samples were then heated at 95° C. for 5 min and separated on a 10-20% Tris-Tricine gradient gel. Peptides were visualized by silver staining (SilverStain Kit, Pierce, Rockford, Ill.).
Peptide self-assembly was probed by photo-induced crosslinking (PICUP) followed by gel electrophoresis.

B1: LG3 (peptide)
peptide: SKVVT[dP]PRYTIAALLSPYSYSQ
Aβ toxicity, MTS assay with primary mouse neuronal cultures (10 µM Aβ) [1]: 10 µM

B2: CG3 (peptide)
peptide: cyclo(SKVVT[dP]PRYTIAALLSPYSYSQ)
SMILES: CC[C@H](C)[C@@H]1NC(=O)[C@H]([C@@H](C)O)NC(=O)[C@H](Cc2ccc(O)cc2)NC(=O)[C@H](CCCNC(=N)N)NC(=O)[C@@H]2CCCN2C(=O)[C@H]2CCCN2C(=O)[C@H]([C@@H](C)O)NC(=O)[C@H](C(C)C)NC(=O)[C@H](C(C)C)NC(=O)[C@H](CCCCN)NC(=O)[C@H](CO)NC(=O)[C@H](CCC(N)=O)NC(=O)[C@H](CO)NC(=O)[C@H](Cc2ccc(O)cc2)NC(=O)[C@H](CO)NC(=O)[C@H](Cc2ccc(O)cc2)NC(=O)[C@@H]2CCCN2C(=O)[C@H](CO)NC(=O)[C@H](CC(C)C)NC(=O)[C@H](CC(C)C)NC(=O)[C@H](C)NC(=O)[C@H](C)NC1=O
Aβ toxicity, MTS assay with primary mouse neuronal cultures (10 µM Aβ) [1]: 10 µM

B3: G16 (peptide)
peptide: Ac-PRRYTIAALLSPYSWS-NH2
notes: also called 16-mer linear peptide
binding result [2]: binds

B4: CG2 (peptide)
peptide: cyclo(SKV[dP]PTIAALLSPYSYSQ)
SMILES: CC[C@H](C)[C@@H]1NC(=O)[C@H]([C@@H](C)O)NC(=O)[C@@H]2CCCN2C(=O)[C@H]2CCCN2C(=O)[C@H](C(C)C)NC(=O)[C@H](CCCCN)NC(=O)[C@H](CO)NC(=O)[C@H](CCC(N)=O)NC(=O)[C@H](CO)NC(=O)[C@H](Cc2ccc(O)cc2)NC(=O)[C@H](CO)NC(=O)[C@H](Cc2ccc(O)cc2)NC(=O)[C@@H]2CCCN2C(=O)[C@H](CO)NC(=O)[C@H](CC(C)C)NC(=O)[C@H](CC(C)C)NC(=O)[C@H](C)NC(=O)[C@H](C)NC1=O
Aβ toxicity, MTS assay with primary mouse neuronal cultures (10 µM Aβ) [1]: 10 µM
